Source: article PMC11277499, “Structural Basis for the Interaction between the Ezrin FERM-Domain and Human Aquaporins” (International Journal of Molecular Sciences, 2024)
Residues, ends and D or L forms follow the SMILES beside them.

Key:
[1] = molecular target: T1, human ezrin FERM-domain (residues 1–295) (Homo sapiens, UniProt P15311); assay: Microscale thermophoresis (MST), binding to FERM-Alexa488; details: Z-test for population means; for Affinity for FERM, full-length AQP compared with its C-terminal tail: significant if p < 0.05
T1 construct: human ezrin FERM-domain (residues 1–295); 8xHis-tag (N); TEV cleavage site (N); made in house; host or cells: E. coli BL21*
Procedure: For each AQP, a 1:1 dilution series was made resulting in 12 samples with a concentration range of 0.0419–86.0 μM for AQP2 and 0.029–60.6 μM for AQP5. The samples were mixed with an equal volume of FERM that had been labelled with Alexa-488, transferred to MST capillaries, and MST traces were recorded (Figure S1). From these traces, the difference in normalized fluorescence before and after heating was used to generate a binding curve for each AQP from which the dissociation constant (Kd) could be determined (Figure 3a).
This artefact became even more prominent when the AQP concentration was increased further. As a result, AQP concentrations that would lead to saturation could not be used in the case of AQP5, wherefore the estimated Kd-value should be evaluated with caution.
Next, we set out to investigate if the interaction between FERM and AQP2/AQP5 is mediated by the AQP C-termini as previously proposed. For this purpose, we expressed the AQP2 and AQP5 C-terminal tails (residues 227–271 and 228–265 for AQP2 and AQP5 respectively) as GST-fusion constructs in E. coli. The purified GST-AQP constructs were then cleaved with thrombin, allowing AQP2 and AQP5 C-termini to be separated from the GST-tag. For each AQP C-terminal peptide, a 1:1 dilution series was made resulting in 12 samples for AQP2 (0.072–294.5 μM) and 16 samples (0.001–337.5 μM) for AQP5, mixed with fluorescently labelled FERM, and MST-traces were recorded and analyzed as described above (Figure S1). […] This confirms the C-terminus as the region responsible for the FERM-interaction for both AQP2 and AQP5.
The E. coli codon-optimized gene for the human ezrin FERM-domain (residues 1–295) was synthesized (Genscript, Piscataway, NJ, USA) and cloned into pET15b using the NdeI and BamHI sites. The final construct contained an N-terminal 8xHis-tag followed by a TEV cleavage site. The plasmid was transformed into calcium-competent E. coli cells BL21* by heat shock. 2x1L LB-media supplemented with 100 μg/mL ampicillin was inoculated with a 5 mL overnight culture. […]

[2] = test system: Ezrin; details: co-IP and PLA, NS-SV-AC cells; ref [31]; cited from earlier work
Text: (§1) Several mammalian AQP isoforms have been proposed to directly interact with Ezrin during trafficking.

[3] = molecular target: T2, human ezrin FERM-domain (residues 1-295), labelled with Alexa-488 (human, UniProt P15311 1-295, cysteine-reactive C5 maleimide-Alexa 488 on cysteines); assay: MST; AQP (full-length or C-terminal peptide) in a 1:1 dilution series mixed with FERM-Alexa488 at 0.125 uM (0.129 uM for the AQP5 C-terminus); Monolith NT.115, room temperature, LED and MST power 80%; premium capillaries (full-length AQP) or standard capillaries (peptides); three dilution series; one-to-one binding model on monomeric AQP concentration; details: both partners purified
T2 construct: ezrin, human, FERM-domain, residues 1-295; the construct has an N-terminal 8xHis-tag followed by a TEV cleavage site; No TEV cleavage is described in the purification; codon-optimised synthetic gene in pET15b; also called FERM-Alexa488; source: E. coli BL21*, purified (His-trap)

[4] = test system: LIP5; details: compared with construct truncated immediately after the amphipathic helix; ref [36] Roche et al., 2017; cited from earlier work
Text: Moreover, introduction of pho ...

[5] = test system: Ezrin FERM-domain; details: co-IP and pull-down; ref [30]; cited from earlier work
Text: as §1

T2 sequence (P15311 1-295): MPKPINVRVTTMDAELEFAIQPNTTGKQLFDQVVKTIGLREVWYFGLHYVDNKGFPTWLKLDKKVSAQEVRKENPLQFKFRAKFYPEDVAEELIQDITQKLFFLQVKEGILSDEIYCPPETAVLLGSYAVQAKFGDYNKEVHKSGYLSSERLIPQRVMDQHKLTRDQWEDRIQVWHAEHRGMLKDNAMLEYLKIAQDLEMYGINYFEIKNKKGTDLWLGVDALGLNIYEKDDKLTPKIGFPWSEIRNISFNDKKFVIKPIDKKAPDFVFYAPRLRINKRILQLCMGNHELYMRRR
T1 sequence (P15311 1-295): as above

Molecule | Kd [3] [µM] | Affinity for FERM, full-length AQP compared with its C-terminal tail [1] | also measured
CC[C@H](C)[C@H](NC(=O)[C@H](C)NC(=O)[C@@H](NC(=O)[C@H](CCCNC(=N)N)NC(=O)[C@H](CCC(=O)O)NC(=O)[C@H](CO)NC(=O)[C@H](CC(C)C)NC(=O)[C@H](CO)NC(=O)[C@H](CC(C)C)NC(=O)[C@H](CO)NC(=O)[C@H](CC(N)=O)NC(=O)[C@H](CO)NC(=O)CN)C(C)C)C(=O)N[C@H](C(=O)N[C@@H](CCCCN)C(=O)NCC(=O)N[C@H](C(=O)N[C@@H](Cc1ccc(O)cc1)C(=O)N[C@@H](CCC(=O)O)C(=O)N1CCC[C@H]1C(=O)N[C@@H](CC(=O)O)C(=O)N[C@@H](CCC(=O)O)C(=O)N[C@@H](CC(=O)O)C(=O)N[C@@H](Cc1c[nH]c2ccccc12)C(=O)N[C@@H](CCC(=O)O)C(=O)N[C@@H](CCC(=O)O)C(=O)N[C@@H](CCC(N)=O)C(=O)N[C@@H](CCCNC(=N)N)C(=O)N[C@@H](CCC(=O)O)C(=O)N[C@@H](CCC(=O)O)C(=O)N[C@@H](CCCNC(=N)N)C(=O)N[C@@H](CCCCN)C(=O)N[C@@H](CCCCN)C(=O)N[C@H](C(=O)N[C@@H](CCSC)C(=O)N[C@@H](CCC(=O)O)C(=O)N[C@@H](CC(C)C)C(=O)N[C@H](C(=O)N[C@H](C(=O)N[C@@H](CCCNC(=N)N)C(=O)O)[C@@H](C)O)[C@@H](C)O)[C@@H](C)O)[C@@H](C)O)[C@@H](C)CC [AQP5 C-terminal peptide] (H-GSNSLSLSERVAIIKGTYEPDEDWEEQREERKKTMELTTR-OH; N-terminus and C-terminus assumed) |  |  | Affinity for FERM, AQP5 C-terminal peptide compared with AQP2 C-terminal peptide [1]: somewhat higher (p < 0.05)
full-length AQP5: human aquaporin 5, untagged, recombinantly produced in Pichia pastoris |  | significant difference between full-length AQP5 and the AQP5 C-terminal tail (p < 0.05) | Interaction of AQP5 with ezrin [2]: identified an interaction
full-length human AQP2 (natural protein, UniProt P41181 1-271, looked up, aquaporin 2, human, full-length, with an uncleavable His-tag attached to the N-terminus; kept in detergent (0.2% NG); The Kd is fitted on the monomeric AQP concentration; also called Aquaporin 2; source: Pichia pastoris, purified (NG-solubilised membranes, HisTrap, SEC); not shown: His-tag, N-terminal, kept) MWELRSIAFSRAVFAEFLATLLFVFFGLGSALNWPQALPSVLQIAMAFGLGIGTLVQALGHISGAHINPAVTVACLVGCHVSVLRAAFYVAAQLLGAVAGAALLHEITPADIRGDLAVNALSNSTTAGQAVTVELFLTLQLVLCIFASTDERRGENPGTPALSIGFSVALGHLLGIHYTGCSMNPARSLAPAVVTGKFDDHWVFWIGPLVGAILGSLLYNYVLFPPAKSLSERLAVLKGLEPDTDWEEREVRRRQSVELHSPQSLPRGTKA | 7.8 ± 3.8 |  | 
full-length AQP2: human aquaporin 2, recombinantly produced in Pichia pastoris, His-tag at the N-terminus (protein, left off: His-tag, N-terminal, kept, human aquaporin 2, recombinantly produced in Pichia pastoris, His-tag at the N-terminus) MWELRSIAFSRAVFAEFLATLLFVFFGLGSALNWPQALPSVLQIAMAFGLGIGTLVQALGHISGAHINPAVTVACLVGCHVSVLRAAFYVAAQLLGAVAGAALLHEITPADIRGDLAVNALSNSTTAGQAVTVELFLTLQLVLCIFASTDERRGENPGTPALSIGFSVALGHLLGIHYTGCSMNPARSLAPAVVTGKFDDHWVFWIGPLVGAILGSLLYNYVLFPPAKSLSERLAVLKGLEPDTDWEEREVRRRQSVELHSPQSLPRGTKA |  | highly similar | Affinity for LIP5 [4]: higher affinity; Interaction of AQP2 C-terminal tail with ezrin FERM-domain [5]: direct interaction

More lines, main results first:

Kd [3] [µM] | Molecule | Affinity for FERM, full-length AQP compared with its C-terminal tail [1] | also measured
2.9 ± 0.89 | NSLSLSERVAIIKGTYEPDEDWEEQREERKKTMELTTR (peptide, UniProt P55064 228-265, looked up, aquaporin 5, human, C-terminal tail, residues 228-265; Cloned into pET41a (SpeI, AvrII) with a thrombin site (LVPRGS) between GST and the AQP5 C-terminus; also called AQP5 C-terminal peptide; AQP5 C-terminus; source: E. coli BL21*, GST fusion purified (GSTrap), cleaved with thrombin, separated from GST) [AQP5 C-terminal tail (residues 228-265)] |  | 
8.7 ± 2.4 | AKSLSERLAVLKGLEPDTDWEEREVRRRQSVELHSPQSLPRGTKA (peptide, UniProt P41181 227-271, looked up, aquaporin 2, human, C-terminal tail, residues 227-271; also called AQP2 C-terminal peptide; AQP2 C-terminus; source: E. coli BL21*, GST fusion purified (GSTrap), cleaved with thrombin, separated from GST) [AQP2 C-terminal tail (residues 227-271)] |  | 
